Data as given in patent publication US20120237496.

T1: Peptide-3
T1 chain: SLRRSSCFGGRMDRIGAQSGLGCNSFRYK

T2: Peptide-6a
T2 chain: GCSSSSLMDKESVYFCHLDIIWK

T3: Peptide-13 (not fully specified)
T3 chain: CRPPGFSPFRK

T4: Peptide-6b
T4 chain: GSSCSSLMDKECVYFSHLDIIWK

T5: Peptide-5 (not fully specified)
T5 chain: CDRVYIHPFHLK

T6: Peptide-8 (not fully specified)
T6 chain: CQLYENKPRRPYILK


What was measured:
Peptide-3 = target: T1, Peptide-3
Peptide-6a = target: T2, Peptide-6a
Peptide-13 = target: T3, Peptide-13
Peptide-6b = target: T4, Peptide-6b
Peptide-5 = target: T5, Peptide-5
Peptide-8 = target: T6, Peptide-8

Protein | kapp ratio vs G399V/G714K (B1) (Peptide-7) | kapp ratio vs G399V/G714K (B1) (Peptide-3) | kapp ratio vs G399V/G714K (B1) (Peptide-2) | kapp ratio vs G399V/G714K (B1) (Peptide-6a) | kapp ratio vs G399V/G714K (B1) (Peptide-13) | kapp ratio vs G399V/G714K (B1) (Peptide-6b) | kapp ratio vs G399V/G714K (B1) (Peptide-4) | kapp ratio vs G399V/G714K (B1) (Peptide-5) | kapp ratio vs G399V/G714K (B1) (Peptide-8) | kapp ratio vs G399V/G714K (B1) (Peptide-1)
C16 (protein) YPYDVPDYAYPYDVPDYAYPYDVPDYAGSYDDGICKSSDCIKSAARLIQNMDATTEPCTDFFKYACGGWLKRNVIPETSSRYGNFDILRDELEVVLKDVLQEPKTEDIVAVQKAKALYRSCINESAIDSRGGEPLLKLLPDIYGWPVATENWEQKYGASWTAEKAIAQLNSKYGKKVLINLFVGTDDKNSVNHVIHIDQPRLGLPSGDYYECTGIYKEACTAYVDFMISVARLIRQEERLPIDENQLALEMNKVMELEKEIANATAKPEDRNDPMLLYNKMTLAQIQNNFSLEINGKPFSWLNFTNEIMSTVNISITNEEDVVVYAPEYLTKLKPILTKYSARDLQNLMSWRFIMDLVSSLSRTYKESRNAFRKALYVTTSETATWRRCANYVNGNMMNAVGRLYVEAAFAGESKHVVEDLIAQIREVFIQTLDDLTWMDAETKKRAEEKALAIKERIGYPDDIVSNDNKLNNEYLELNYKEDEYFENIIQNLKFSQSKQLKKLREKVDKDEWISGAAVVNAFYSSGRNQIVFPAGILQPPFFSAQQSNSLNYGGIGMVIGHEITHGFMDNVRNPNKDWDLVDWWTQQSASNFKEQSQCMVYQYGNFSWDLAGGQHLNGINTLGENIADNGGLGQAYRAYQNYIKKNGEEKLLPGLDLNHKQLFFLNFAQVWCGTYRPEYAVNSIKTDVHSPKNFRIIGTLQNSAEFSEAFHCRKNSYMNPEKKCRVW | 0.7 fold | 0.24 fold | 2.19 fold | 0.35 fold | 0.44 fold | 0.23 fold | 0.7 fold | 0.21 fold | 0.4 fold | 2.24 fold
C18 (protein) YPYDVPDYAYPYDVPDYAYPYDVPDYAGSYDDGICKSSDCIKSAARLIQNMDATTEPCTDFFKYACGGWLKRNVIPETSSRYGNFDILRDELEVVLKDVLQEPKTEDIVAVQKAKALYRSCINESAIDSRGGEPLLKLLPDIYGWPVATENWEQKYGASWTAEKAIAQLNSKYGKKVLINLFVGTDDKNSVNHVIHIDQPRLGLPSGDYYECTGIYKEACTAYVDFMISVARLIRQEERLPIDENQLALEMNKVMELEKEIANATAKPEDRNDPMLLYNKMTLAQIQNNFSLEINGKPFSWLNFTNEIMSTVNISITNEEDVVVYAPEYLTKLKPILTKYSARDLQNLMSWRFIMDLVSSLSRTYKESRNAFRKALYVTTSETATWRRCANYVNGNMMNAVGRLYVEAAFAGESKHVVEDLIAQIREVFIQTLDDLTWMDAETKKRAEEKALAIKERIGYPDDIVSNDNKLNNEYLELNYKEDEYFENIIQNLKFSQSKQLKKLREKVDKDEWISGAAVVNAFYSSGRNQIVFPAGILQPPFFSAQQSNSLNYGGIGMVIGHEITHGFMDNVRNFNKDWDLVDWWTQQSASNFKEQSQCMVYQYGNFSWDLAGGQHLNGINTLGENIADNGGLGQAYRAYQNYIKKNGEEKLLPGLDLNHKQLFFLNFAQVWCGTYRPEYAVNSIKTDVHSPKNFRIIGTLQNSAEFSEAFHCRKNSYMNPEKKCRVW | 0.67 fold | 0.24 fold | 2.29 fold | 0.36 fold | 0.5 fold | 0.26 fold | 0.59 fold | 0.16 fold | 0.73 fold | 2.56 fold
C19 (protein) YPYDVPDYAYPYDVPDYAYPYDVPDYAGSYDDGICKSSDCIKSAARLIQNMDATTEPCTDFFKYACGGWLKRNVIPETSSRYGNFDILRDELEVVLKDVLQEPKTEDIVAVQKAKALYRSCINESAIDSRGGEPLLKLLPDIYGWPVATENWEQKYGASWTAEKAIAQLNSKYGKKVLINLFVGTDDKNSVNHVIHIDQPRLGLPSGDYYECTGIYKEACTAYVDFMISVARLIRQEERLPIDENQLALEMNKVMELEKEIANATAKPEDRNDPMLLYNKMTLAQIQNNFSLEINGKPFSWLNFTNEIMSTVNISITNEEDVVVYAPEYLTKLKPILTKYSARDLQNLMSWRFIMDLVSSLSRTYKESRNAFRKALYVTTSETATWRRCANYVNGNMMNAVGRLYVEAAFAGESKHVVEDLIAQIREVFIQTLDDLTWMDAETKKRAEEKALAIKERIGYPDDIVSNDNKLNNEYLELNYKEDEYFENIIQNLKFSQSKQLKKLREKVDKDEWISGAAVVNAFYSSGRNQIVFPAGILQPPFFSAQQSNSLNYGGIGMVIGHEITHGFMDNGRNPNKDLDLVDWWTQQSASNFKEQSQCMVYQYGNFSWDLAGGQHLNGINTLGENIADNGGLGQAYRAYQNYIKKNGEEKLLPGLDLNHKQLFFLNFAQVWCGTYRPEYAVNSIKTDVHSPKNFRIIGTLQNSAEFSEAFHCRKNSYMNPEKKCRVW | 0.34 fold | 0.24 fold | 2.34 fold | 0.29 fold | 0.33 fold | 0.19 fold | 0.67 fold | 0.15 fold | 0.29 fold | 2.33 fold
C17 (protein) YPYDVPDYAYPYDVPDYAYPYDVPDYAGSYDDGICKSSDCIKSAARLIQNMDATTEPCTDFFKYACGGWLKRNVIPETSSRYGNFDILRDELEVVLKDVLQEPKTEDIVAVQKAKALYRSCINESAIDSRGGEPLLKLLPDIYGWPVATENWEQKYGASWTAEKAIAQLNSKYGKKVLINLFVGTDDKNSVNHVIHIDQPRLGLPSGDYYECTGIYKEACTAYVDFMISVARLIRQEERLPIDENQLALEMNKVMELEKEIANATAKPEDRNDPMLLYNKMTLAQIQNNFSLEINGKPFSWLNFTNEIMSTVNISITNEEDVVVYAPEYLTKLKPILTKYSARDLQNLMSWRFIMDLVSSLSRTYKESRNAFRKALYVTTSETATWRRCANYVNGNMMNAVGRLYVEAAFAGESKHVVEDLIAQIREVFIQTLDDLTWMDAETKKRAEEKALAIKERIGYPDDIVSNDNKLNNEYLELNYKEDEYFENIIQNLKFSQSKQLKKLREKVDKDEWISGAAVVNAFYSSGRNQIVFPAGILQPPFFSAQQSNSLNYGGIGMVIGHEITHGFMDNVRNPNKDGDLVDWWTQQSASNFKEQSQCMVYQYGNFSWDLAGGQHLNGINTLGENIADNGGLGQAYRAYQNYIKKNGEEKLLPGLDLNHKQLFFLNFAQVWCGTYRPEYAVNSIKTDVHSPKNFRIIGTLQNSAEFSEAFHCRKNSYMNPEKKCRVW | 0.57 fold | 0.24 fold | 3.13 fold | 0.47 fold | 0.49 fold | 0.33 fold | 0.7 fold | 0.27 fold | 0.33 fold | 3.28 fold
